Test results taken from the supplement of paper PMC9170038.

test system: MS2 coat protein; experiment: apparent KD of MS2 coat protein; higher = weaker reporter binding; conditions: Eterna round: R107; input ligand: arginine 13.2 mM
Experimental: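 RNA-MaP round R107: designed RNA switches with theophylline, tryptophan, arginine or FMN aptamers are transcribed on-chip within common flanks. They are titrated with SNAP-549-labelled MS2 coat protein in RNA-MaP buffer (100 mM Tris pH 7.5, 80 mM KCl, 4 mM MgCl2), without ligand or with the indicated ligand. Median apparent KD per design.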

Sequence | apparent KD of MS2 coat protein [nM]
GGCGUCGGGCGAAGGAGCGUGAAGACAUGAGGAUCACCCAUGUAGAGGCCCGAACAGGGUUCGCAGGUAGGUCGCGCGCGGUGCC [#1 Same State - Arginine B Attempt #6 (HarryS)] | 11.5
GCAUCCUAGUCGGCCGCCACUGCAUGUAGUUUUGCUACAUGGAAACAUGAGGAUCACCCAUGUAGCAGGACCGGGACUAGGAUGC [(Trp1)-(TM)''-(TM)'-(Ms2)-(Trp2)_Design7] | 30.7
AAGCGGGCGACGGCCGCCACUUGCCUGUAAUUAGAGAAGGCACAUGAGGAUCACCCAUGUCCCGCAAGGACCGGGUUGCCUCACU [Ditiraorce] | 93.6
AAGGUGAUCCCAGAUACCAGCCUAACAUGAGGAUCACCCAUGUUUGGGACGAAAGUCCCAGGCCCUUGGCAGCUGGGUUGCCAAG [SSTheo B #17] | 48.8
ACAUGAGGAUCACCCAUGUCAGGGCACGAUACCAGCUGAUCCGAUGGCCCUUGGCAGCGUUACGUGUGGUCAUGAGGAUCACCCG [pjbmullin] | 55.5
CGCAACAUGAGGAUCACCCAUGUAAUGACGCGAGGACCGGUACGGCCGCCACUCGCCUGCCAAUGAGCGCAUGCGGCCUGGGUAU [Exclusion Tryp A GF7] | 11.9
GUUAUGGACCUGGAUACCAGCUGGUACAAGGGCGGUCUACAUGAGGAUCACCCAUGUGUCAGCCCUUGGCAGCCAGCAACCGGCA [Teraus] | 9.36
AUACAUGAGGAUCACCCAUGUGAUGGCCGGCGAGGACCGGUACGGCCGCCACUCGUGAUCCGUCCUGAGAGCAAAGCCCUCAGCA [Onedti] | 17.3
CAACUGCUUGAGCUUACUUAUUGGACUUCCCGAGGACCGGUACGGCCGCCACUCGCAGGGACACAUGAGGAUCACCCAUGUAAAG [theeternabot_exclusion_MS2_Trp_A_42] | 17.3
ACAUGAGGAUCACCCAUGUAAUGGCACGAUACCAGCUGAUCCCGUGGCCCUUGGCAGCGUCCGGUGUGGUCCGCCGGGUUGGACC [HHHMULLIN] | 59
AAUAGCAUGAGGAUCACCCAUGUAAAAGAUACCAGAGUGAUGAUCCUCCCUUGGCAGCUUAACGCUGAUUGAUUACAAUCAGCGA | 37
GUCAGUAGAACAGAUACCAGUCAAAAGCUGUGAUCUCAUAACAUGAGGAUCACCCAUGUUGACCCUUGGCAGCUGUGGGCGAGGG [#19 Exclusion-TheophyllineB] | 27
GGUACAUGAGGAUCACCCAUGUAUGCGAGCCGAGGACCGGUACGGCCGCCACUCGCUUAACAUGAGGAUCACCCAUGUUUCUCGG [SSTA DOUBLE!!! :-D #15] | 90.9
GCCAAAAUACCCGAUACCAGUAUUAAUAGCACAACCUCACACAUGAGGAUCACCCAUGUAUACCCUUGGCAGCGGCCUAACAUAA [theeternabot_exclusion_MS2_Theo_B_49] | 30.5
AAUUGGGUUGGUGAGGUGGUUGGAGGCGAUACCAGCGUGGAAACACGCCCUUGGCAGCGCCAGGACAUGAGGAUCACCCAUGUAA [Praha] | 32.1
UACAUACAUGAGGAUCACCCAUGUUGCGAUACCAGCGAAAGAGACCGCCCUUGGCAGCGCUCAUUUAGUUCCAUUCUUGAUCGAA [theeternabot_sameState_MS2_Theo_A_4] | 14.5
CCUAUGCAGUCGGCCGCCACUGAACAUGAGGAUCACCCAUGUUAUUAUAAAUAUGGUCCUAAAAUCAGGACCGGGACUGUAUAGG [Ex Tryptophan B 8] | 42.7
UGGGUCGGAUGAGUAAAUUGUCCGACGUAUCGAGGACCGGUACGGCCGCCACUCGGUUGUACAUGAGGAUCACCCAUGUCAGGGU [#1 Same State - Tryptophan A Attempt #16 (HarryS)] | 40.5
GUUAUAUACUCGGCCGCCACUGAGAGAGUCAUGUAAACAUGAGGAUCACCCAUGUAAUAUAUAUACAGGACCGGGAGUAUGGUAA [4.E] | 12.1

Sequence | apparent KD of MS2 coat protein [nM]
AUAUUUAACGGAAGGAGCGCGGAUAAUAAAGUGGGUAAACAUGAGGAUCACCCAUGUAAACCGCAGGUAGGUCGCCGAUAUAUAU [AstrosEXyARgB#7] | 26.4
UCGCCCGGGUCGGCCGCCACUGAGGUGAUGUGACAUGAGGAUCACCCAUGUUGUCAUGUGGCACAUAGGACCGGGACCCGGGCGA [Exclusion - Tryptophan B Attempt #3 (HarryS)] | 16.4
AAAUAAUAUUAAUUAAUUAUAUUAUUCUGACGAGGACCGGUACGGCCGCCACUCGGCCCAUGGUACAUGAGGAUCACCCAUGUCU [Same State - Tryptophan A] | 17
UGUAUGUGAUCUGAUACCAGAGUGACGCGAAAGCGAUAACCUGAGGAUCACCCUGGUAAACUCCCUUGGCAGCAGAUCGCAUACU | 53.7
AAUUAAACAUCGGCCGCCACUUACUCAUGAGGUAACAACAUGAGGAUCACCCAUGUUUGAGGAUCAAGGACCGGGAUGUAAUUUU [AstrosSSTryB#3] | 28
ACACAUGACAGAAGGAGCGGAAUGAACACACAUGAGGAUCACCCAUGUUUUUUUUGUGUUUUCCAGGUAGGUCGCUGACAUGAGG [#20 Same State - Arginine B] | 11.2
GUAUAGUCUCGAAGGAGCGUCACAUGAGGAUCACCCAUGUACAUGAGGAUCACCCAUGUGUGGCAGGUAGGUCGCGAGCUAUACC [Exclusion Arginine B GF8] | 136
AUGGCGUUGGUGAGGCGGUUUAAUGGCGAUACCAGCGUGGAAACACGCCCUUGGCAGCGCCAAAACAUGAGGAUCACCCAUGUUA [Budejovice] | 13.2
UGGCGAGAAGGAAGGAGCGUCAGCUGAGUUACAUGAGGAUCACCCAUGUUUUACAUUGUGUGACAGGUAGGUCGCCUUCUGCCCU [SS-ArgB20] | 15.7
AUAACAUGAGGAUCACCCAUGUAUUGGUUACGAGGACCGGUACGGCCGCCACUCGUAUUAUAGUGGUAUUUUGUUUAUAUGAUAA [JR_Nu_TrtptoA_Sub019] | 14.8
UAUCCACAUGAGGAUCACCCAUGUUAGGAAGGAGCGGUGAAUGAACCAGGUAGGUCGCCUAGCUGAGGACCGUCGAUGGAUUCGU [Exclusion - Arginine A (Freestyle 16)] | 13.7
UCAAUACAGUCGGCCGCCACUGUAACCAAACCUACAUACCAACAUGAGGAUCACCCAUGUUUAUACAGGACCGGGACCUCUAUGA [theeternabot_sameState_MS2_Trp_B_10] | 32.6
AUACAUGAGGAUCACCCAUGUGAUGGCCGGCGAGGACCGGUACGGCCGCCACUCGUGAUCCGUCCCGAGAGCAAAGCUCUCGACA [Raatala] | 4.9
CCCAAGCCAGCUGAUACCAGUGACGUGGUCAGAAUGUGCGACAUGAGGAUCACCCAUGUACACCCUUGGCAGCAGUAGAACGGUU [theeternabot_exclusion_MS2_Theo_B_47] | 13.6
UGGGUAGCAUAGAUUGAUAGUUAAACUGAAGGAGCGAGAAUAAUCUCAGGUAGGUCGCAGACAUGAGGAUCACCCAUGUAGAUGG [Same State Arginine A GF16] | 47
AAAUAAAUACAUGAGGAUCACCCAUGUGAAGGAGCGCCCGUUAGGGCAGGUAGGUCGCACAUGAACUCCAAAGUGCAAAAGCACA [ArgEX 17 #OpenEnded] | 35.7
UGGGUCGGAUGAGUAAAUUGUCGGACUCAUCGAGGACCGGUACGGCCGCCACUCGGUUGUACAUGAGGAUCACCCAUGUCAGGGU [#1 Same State - Tryptophan A Attempt #17 (HarryS)] | 47.4
AUGUAGCCGUCGACUGUACCUUAUGCCGAUACCAGCUACCCGUGAAGCCCUUGGCAGCGGGAAACAUGAGGAUCACCCAUGUCAG [theeternabot_exclusion_MS2_Theo_A_13] | 19.6
